Measurements taken from the RNAGym collection of RNA variant scans (doi:10.1073/pnas.2313332121).

B1: TPR t1 (parent)
chain: GACCAAUCUGCCCUCAGAGCUCGAGAACAUCUUCGGAUGCAGAGGAGGCAGGCUUCGGUGGCGCGAUAGCGCCAACGUCCUCAACCUCCAAUGCAUCCCACCACAUGAUGAUGCCUGAAGAGCCUUGGUUUUUUG

Variants of: B1
Assay: polymerase ribozyme fitness, log enrichment relative to wild type (log ratio); higher = more active; in vitro selection for triplet polymerase activity
Outline: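 A single round of triplicate in vitro selection, including frozen incubation at −7 °C, was applied to PCR-built, transcribed mutant libraries of each subunit of a heterodimeric triplet polymerase ribozyme. Illumina sequencing of input and output libraries retained genotypes with ≥10 input reads and ≥1 read per output. Fitness is the base-2 logarithm of genotype enrichment divided by wild-type enrichment, from inverse-variance-weighted replicate averages.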

First: C34A A100G
Second: C34G G107A
The “polymerase ribozyme fitness (log ratio)” value of the first is higher: -5.07 for the first, -7.98 for the second.

First: G35U G69A A105C U106A G120U
Second: G35C A50G C53G U67G C124A G135U
The “polymerase ribozyme fitness (log ratio)” value of the first is higher: -6.28 for the first, -6.69 for the second.

Going from G35A C99A C123A to G35U A74G C89U C115A, the “polymerase ribozyme fitness (log ratio)” value rises from -6.8 to -6.17.

First: G35U A90C C97G A121C
Second: C34U U112A G122A
The “polymerase ribozyme fitness (log ratio)” value of the first is lower: -7.34 for the first, -5.94 for the second.

Going from G35U A75U C124A to C34A G77U C98A, the “polymerase ribozyme fitness (log ratio)” value rises from -4.78 to -2.63.

Going from C34A C72U U116G to C34G U112A, the “polymerase ribozyme fitness (log ratio)” value rises from -5.21 to -4.47.

Going from C34U C70G C72U to G35C C114U, the “polymerase ribozyme fitness (log ratio)” value rises from -7.09 to -5.79.

Going from G35A C64U A103C G120A to C34G U54G G69U, the “polymerase ribozyme fitness (log ratio)” value rises from -5.9 to -5.25.

Compared with G35U G36U C124U, G35C G52U C53G A90G C98U is lower in “polymerase ribozyme fitness (log ratio)” value: -5.29 for the first, -6.7 for the second.

First: C34A G113C
Second: C34A G113A
The “polymerase ribozyme fitness (log ratio)” value of the first is lower: -5.75 for the first, -4.03 for the second.

Compared with G35A G51A G60U C124U, C34A A46G U54G is higher in “polymerase ribozyme fitness (log ratio)” value: -6.94 for the first, -2.69 for the second.

First: C34U C56A G71C U112A
Second: C34A G61A
The “polymerase ribozyme fitness (log ratio)” value of the first is lower: -6.49 for the first, -2.98 for the second.

Going from G35C A43G G60A C62U C64G A84U C98U A111U A121U to C34G G47U U55G G61C G63C C80U, the “polymerase ribozyme fitness (log ratio)” value rises from -7.98 to -7.69.

Going from C34U A84U U131G to C34A C64U, the “polymerase ribozyme fitness (log ratio)” value rises from -5.95 to -2.37.

Compared with G35A G48A G71A C89A C99A C101U, C34A G35A C86G U112C is higher in “polymerase ribozyme fitness (log ratio)” value: -7.55 for the first, -4.41 for the second.

Going from C34A C102U to C34G C124U, the “polymerase ribozyme fitness (log ratio)” value falls from -1.64 to -4.28.

Going from C34G C124A to C34A C72G G107U U109G A121G, the “polymerase ribozyme fitness (log ratio)” value falls from -3.61 to -5.86.

C34U A50U C73U C115A A119G and C34U G122A are within 0.2 log units of each other in “polymerase ribozyme fitness (log ratio)” value: -4.5 for the first, -4.6 for the second.

First: G35A G48C C56A C123G
Second: C34A G60C U112G U130A U133A
The “polymerase ribozyme fitness (log ratio)” value of the first is higher: -2.99 for the first, -4.54 for the second.

Going from G35A C72G A105C U109G U116G A121G to G35U C79A, the “polymerase ribozyme fitness (log ratio)” value falls from -6.34 to -6.66.

Compared with C34A C40A C49G G77A U112A C115G, G35A G48U is higher in “polymerase ribozyme fitness (log ratio)” value: -7.22 for the first, -3.78 for the second.

Going from C34A A50G G113U G120C to C34U C72A C123A, the “polymerase ribozyme fitness (log ratio)” value rises from -6.31 to -5.4.

Compared with C34A G71U, C34G G44A is lower in “polymerase ribozyme fitness (log ratio)” value: -2.95 for the first, -6.88 for the second.

Compared with G35A A108U G120C, G35A G120C is higher in “polymerase ribozyme fitness (log ratio)” value: -5.76 for the first, -2.79 for the second.

Going from G35A C102U to G35U G42A, the “polymerase ribozyme fitness (log ratio)” value falls from -5.08 to -6.8.

Compared with C34G A83C, C34U G113A C115A U132A is lower in “polymerase ribozyme fitness (log ratio)” value: -4.9 for the first, -6.07 for the second.

Going from C34G G36A U96A C124U to C34A C123U, the “polymerase ribozyme fitness (log ratio)” value rises from -6.45 to -1.54.

First: C34A C123G
Second: C34A U87A A90G
The “polymerase ribozyme fitness (log ratio)” value of the first is higher: -0.401 for the first, -2.87 for the second.

First: C34A C98U G122U
Second: C34A C56G G117A
The “polymerase ribozyme fitness (log ratio)” value of the first is higher: -2.46 for the first, -5.64 for the second.

First: G35U C64U A90U U106A C115G G117A A119G
Second: C34A C72A C102U
The “polymerase ribozyme fitness (log ratio)” value of the first is lower: -6.88 for the first, -2.07 for the second.

Going from C34A A95U to C34U C102U C124A, the “polymerase ribozyme fitness (log ratio)” value rises from -3.54 to -0.815.

Compared with C34A G65U C82G A111G U116G, C34G G44U C62U G77A G110C is higher in “polymerase ribozyme fitness (log ratio)” value: -6.99 for the first, -6.64 for the second.

First: C34A G69C A111G
Second: C34A C40U A41U C101A C114A G120A
The “polymerase ribozyme fitness (log ratio)” value of the first is higher: -5.23 for the first, -6.72 for the second.

Going from C34A G39U C73G C98A to C34A U112A, the “polymerase ribozyme fitness (log ratio)” value rises from -4.33 to -1.81.

Compared with G36A A68G, C34U A50C C70G C79G C89A C102G C124U is lower in “polymerase ribozyme fitness (log ratio)” value: -3.57 for the first, -6.39 for the second.

First: C34U C79U U130C
Second: C34A A121U
The “polymerase ribozyme fitness (log ratio)” value of the first is lower: -5.4 for the first, -0.134 for the second.

Going from C34A C97G to C34A C49G C76G U96A C124U U131G U134C, the “polymerase ribozyme fitness (log ratio)” value rises from -4.18 to -2.1.

C34U A84G C89G and C34G G117C C124A are within 0.2 log units of each other in “polymerase ribozyme fitness (log ratio)” value: -6.47 for the first, -6.44 for the second.

C34A G63C A100C C104A and G35C G63C are within 0.2 log units of each other in “polymerase ribozyme fitness (log ratio)” value: -6.04 for the first, -5.87 for the second.

Compared with G35U A121G, C34U C49G C53G A75G C88A C104A U112A is lower in “polymerase ribozyme fitness (log ratio)” value: -3.56 for the first, -5.7 for the second.

First: C34A U55A C88A
Second: C34G U38A G48A C53U A111U
The “polymerase ribozyme fitness (log ratio)” value of the first is higher: -3.93 for the first, -6 for the second.

With C34A G127C the “polymerase ribozyme fitness (log ratio)” value was -3.8.
